Data taken from the supplement of paper PMC10266784.

B1: library; numbered along this chain (parent)
chain: MAAAAAAAAEQQSSNGPVKKSMREKAVERRSVNKEHNSNFKAGYIPIDEDRLHKTGLRGRKGNLAICVIILLFILAVINLIITLVIWAVIRIGPNGCDSMEFHESGLLRFKQVSDMGVIHPLYKSTVGGRRNENLVITGNNQPIVFQQGTTKLSVENNKTSITSDIGMQFFDPRTQNILFSTDYETHEFHLPSGVKSLNVQKASTERITSNATSDLNIKVDGRAIVRGNEGVFIMGKTIEFHMGGNMELKAENSIILNGSVMVSTTRLPSSSSGDQLGSGDWVRYKLCMCADGTLFKVQVTSQNMGCQISDNPCGNTH

Variants of: B1
Assay: SGCB cell-surface expression functional score (HA stain, bin4 vs bin1, normalised to synonymous) (log10 ratio); higher = more cell-surface SGCB (functional)
Outline: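 Human beta-sarcoglycan, tagged with HA and fused to YFP, was built into codon-saturation libraries and delivered by lentivirus at MOI <0.1 into HEK293 cells that stably express alpha-, gamma- and delta-sarcoglycan. After 72 hours, YFP-positive cells were sorted and grown for 5–7 days, then stained on ice with Alexa Fluor 647 anti-HA, fixed, sorted into four 5% intensity bins and amplicon-sequenced. Each variant's functional score is the log ratio of its frequency in the highest bin to that in the lowest bin, taken as the median across codons and transductions. Transductions were done in duplicate, and synonymous variants were scaled per section to mean 0, SD 0.5.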

Row | Variant | SGCB cell-surface expression functional score (log10)
1 | MAAAAAAAAEQQSSNGPVKKSMREKAVERRSVNKEHNSNFKAGYIPIDEDRLHKTGLRGRKGNLAICVIILLFILAVINLIITLVIWAVIRIGPNGCDSMEFHESGLLRFKQVSDMGVIHPLYKSTVGGRRNENLVITGNNQPIVFQQGTTKLSVENNKTSITSDIGMQFFDPRTQNILFSTDYETHEFHLPSGVKSLNVQKASTERITSNATSDLNIKVDGRAIVRGNEGVFIMGGTIEFHMGGNMELKAENSIILNGSVMVSTTRLPSSSSGDQLGSGDWVRYKLCMCADGTLFKVQVTSQNMGCQISDNPCGNTH [K237G] | 0.05
2 | MAAAAAAAAEQQSSNGPVKKSMREKAVERRSVNKEHNSNFKAGYIPIDEDRLHKTGLRGRKGNLAICVIILLFILAVINLIITLVIWAVIRIGPNGCDSMEFHESGLLRFKQVSDMGVIHPLYKSTVGGRRNENLVITGNNQPIVFQQGTTKLSVENNKTSITSDIGMQFFDPRTQNILFSTDYETHEFHLPSGVKSLNVQKASTERITSNATSDLNIKVDGRAIVRGNEGVFIMGCTIEFHMGGNMELKAENSIILNGSVMVSTTRLPSSSSGDQLGSGDWVRYKLCMCADGTLFKVQVTSQNMGCQISDNPCGNTH [K237C] | 0.61
3 | MAAAAAAAAEQQSSNGPVKKSMREKAVERRSVNKEHNSNFKAGYIPIDEDRLHKTGLRGRKGNLAICVIILLFILAVINLIITLVIWAVIRIGPNGCDSMEFHESGLLRFKQVSDMGVIHPLYKSTVGGRRNENLVITGNNQPIVFQQGTTKLSVENNKTSITSDIGMQFFDPRTQNILFSTDYETHEFHLPSGVKSLNVQKASTERITSNATSDLNIKVDGRAIVRGNEGVFIMGLTIEFHMGGNMELKAENSIILNGSVMVSTTRLPSSSSGDQLGSGDWVRYKLCMCADGTLFKVQVTSQNMGCQISDNPCGNTH [K237L] | 0.6
4 | MAAAAAAAAEQQSSNGPVKKSMREKAVERRSVNKEHNSNFKAGYIPIDEDRLHKTGLRGRKGNLAICVIILLFILAVINLIITLVIWAVIRIGPNGCDSMEFHESGLLRFKQVSDMGVIHPLYKSTVGGRRNENLVITGNNQPIVFQQGTTKLSVENNKTSITSDIGMQFFDPRTQNILFSTDYETHEFHLPSGVKSLNVQKASTERITSNATSDLNIKVDGRAIVRGNEGVFIMGMTIEFHMGGNMELKAENSIILNGSVMVSTTRLPSSSSGDQLGSGDWVRYKLCMCADGTLFKVQVTSQNMGCQISDNPCGNTH [K237M] | 0.8
5 | MAAAAAAAAEQQSSNGPVKKSMREKAVERRSVNKEHNSNFKAGYIPIDEDRLHKTGLRGRKGNLAICVIILLFILAVINLIITLVIWAVIRIGPNGCDSMEFHESGLLRFKQVSDMGVIHPLYKSTVGGRRNENLVITGNNQPIVFQQGTTKLSVENNKTSITSDIGMQFFDPRTQNILFSTDYETHEFHLPSGVKSLNVQKASTERITSNATSDLNIKVDGRAIVRGNEGVFIMGATIEFHMGGNMELKAENSIILNGSVMVSTTRLPSSSSGDQLGSGDWVRYKLCMCADGTLFKVQVTSQNMGCQISDNPCGNTH [K237A] | 0.85
6 | MAAAAAAAAEQQSSNGPVKKSMREKAVERRSVNKEHNSNFKAGYIPIDEDRLHKTGLRGRKGNLAICVIILLFILAVINLIITLVIWAVIRIGPNGCDSMEFHESGLLRFKQVSDMGVIHPLYKSTVGGRRNENLVITGNNQPIVFQQGTTKLSVENNKTSITSDIGMQFFDPRTQNILFSTDYETHEFHLPSGVKSLNVQKASTERITSNATSDLNIKVDGRAIVRGNEGVFIMGTTIEFHMGGNMELKAENSIILNGSVMVSTTRLPSSSSGDQLGSGDWVRYKLCMCADGTLFKVQVTSQNMGCQISDNPCGNTH [K237T] | 0.58
7 | MAAAAAAAAEQQSSNGPVKKSMREKAVERRSVNKEHNSNFKAGYIPIDEDRLHKTGLRGRKGNLAICVIILLFILAVINLIITLVIWAVIRIGPNGCDSMEFHESGLLRFKQVSDMGVIHPLYKSTVGGRRNENLVITGNNQPIVFQQGTTKLSVENNKTSITSDIGMQFFDPRTQNILFSTDYETHEFHLPSGVKSLNVQKASTERITSNATSDLNIKVDGRAIVRGNEGVFIMGDTIEFHMGGNMELKAENSIILNGSVMVSTTRLPSSSSGDQLGSGDWVRYKLCMCADGTLFKVQVTSQNMGCQISDNPCGNTH [K237D] | 0.73
8 | MAAAAAAAAEQQSSNGPVKKSMREKAVERRSVNKEHNSNFKAGYIPIDEDRLHKTGLRGRKGNLAICVIILLFILAVINLIITLVIWAVIRIGPNGCDSMEFHESGLLRFKQVSDMGVIHPLYKSTVGGRRNENLVITGNNQPIVFQQGTTKLSVENNKTSITSDIGMQFFDPRTQNILFSTDYETHEFHLPSGVKSLNVQKASTERITSNATSDLNIKVDGRAIVRGNEGVFIMYKTIEFHMGGNMELKAENSIILNGSVMVSTTRLPSSSSGDQLGSGDWVRYKLCMCADGTLFKVQVTSQNMGCQISDNPCGNTH [G236Y] | -1.44
9 | MAAAAAAAAEQQSSNGPVKKSMREKAVERRSVNKEHNSNFKAGYIPIDEDRLHKTGLRGRKGNLAICVIILLFILAVINLIITLVIWAVIRIGPNGCDSMEFHESGLLRFKQVSDMGVIHPLYKSTVGGRRNENLVITGNNQPIVFQQGTTKLSVENNKTSITSDIGMQFFDPRTQNILFSTDYETHEFHLPSGVKSLNVQKASTERITSNATSDLNIKVDGRAIVRGNEGVFIMVKTIEFHMGGNMELKAENSIILNGSVMVSTTRLPSSSSGDQLGSGDWVRYKLCMCADGTLFKVQVTSQNMGCQISDNPCGNTH [G236V] | -1.25
10 | MAAAAAAAAEQQSSNGPVKKSMREKAVERRSVNKEHNSNFKAGYIPIDEDRLHKTGLRGRKGNLAICVIILLFILAVINLIITLVIWAVIRIGPNGCDSMEFHESGLLRFKQVSDMGVIHPLYKSTVGGRRNENLVITGNNQPIVFQQGTTKLSVENNKTSITSDIGMQFFDPRTQNILFSTDYETHEFHLPSGVKSLNVQKASTERITSNATSDLNIKVDGRAIVRGNEGVFIMWKTIEFHMGGNMELKAENSIILNGSVMVSTTRLPSSSSGDQLGSGDWVRYKLCMCADGTLFKVQVTSQNMGCQISDNPCGNTH [G236W] | -2.11
